Test results: patent publication US20220356267A1

Key:
[1] = biological target: recombinant human CD73 protein (ecto-5'-nucleotidase), expressed by the applicant, C-terminal 6x His tag (human) (UniProt P21589); assay: SPR, Biacore T200, antibody captured, human CD73 injected, 25 °C, 1:1 fit
[2] = biological target: recombinant human CD73 protein (ecto-5'-nucleotidase), expressed by the applicant, C-terminal 6x His tag (human) (UniProt P21589); assay: cell-based or functional assay
CD73 on A549 cells = CD73 on A549 cells (UniProt P21589); assay: cell-based or functional assay

Question: MEDI-9447 (antibody) was tested. Which Kd [1] did it give?
Answer: The Kd was 0.107 nM.

Question: What about the koff [1] of the same substance?
Answer: Its koff is 6.9e-05 s⁻¹.

Question: What about the kon [1] of the same substance?
Answer: The kon was 647000 M⁻¹ s⁻¹.

Question: What about the EC50 (µg/mL), Biochemical level, inhibition of the enzyme activity of CD73 [2] of the same substance?
Answer: The EC50 (µg/mL), Biochemical level, inhibition of the enzyme activity of CD73 was 0.188 µg/mL.

Question: And the EC50 (µg/mL), Cell level (A549 cells), inhibition of the enzyme activity of CD73 (CD73 on A549 cells)?
Answer: The EC50 (µg/mL), Cell level (A549 cells), inhibition of the enzyme activity of CD73 was 0.113 µg/mL.
